Test results taken from the supplement of paper PMC10126150.
± gives the standard deviation of the averaged measurements.

system: ATP; experiment: switch fluorescence ratio, 500 uM ATP over buffer (Cy3 cluster intensity, sum of 5 cycles each) (fold (ratio)); higher = stronger signal-on switching upon ATP binding; sequences stand for … in TCGTCGGCAGCGTCAGATGTGTATAAGAGACAGTTTTTTTTTTTTTTTTTTTTTTTTT…TC; settings: aptamer strand: ATP DNA aptamer (quencher-CACCTGGGGGAGTATTGCGGAGGAAGG + anchor), 100 nM annealed; ATP concentration: 500 uM
Outline: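 Exposure to 500 uM ATP lasted 15 min at 22 °C before imaging, and a selection-buffer image was taken beforehand, for Cy3-labelled switching-strand clusters on a modified Illumina MiSeq flow-cell annealed to 100 nM quencher-labelled ATP aptamer. Five buffer/ATP cycles were run with NaOH stripping and re-annealing between them. The fluorescence ratio per cluster is summed target-cycle over summed buffer-cycle Cy3 intensity, averaged per switch-domain sequence. Clusters outside 100-1000 RFU were excluded.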

| Sequence | switch fluorescence ratio |
| --- | --- |
| ATCCTTAAGG | 0.961 ± 0.026 |
| ATCCTTCTAA | 1.05 ± 0.018 |
| ATCCTTGATA | 1.03 ± 0.016 |
| ATCGAAAGGG | 1.01 ± 0.054 |
| ATCGAAGGCA | 0.9862 ± 0.008 |
| ATCGAATAGG | 0.9872 ± 0.0022 |
| ATCGAATCCT | 1.09 ± 0.012 |
| ATCGAATTTT | 1 ± 0.061 |
| ATCGAGCCGG | 0.98 ± 0.049 |
| ATCGAGTCTA | 0.953 ± 0.017 |
| ATCGAGTGCT | 0.952 ± 0.016 |
| ATCGAGTTAG | 0.978 ± 0.012 |
| ATCGCATTG | 1.24 ± 0.34 |
| ATCGCCAGGC | 1.014 ± 0.0044 |
| ATCGCCGGGG | 1.02 ± 0.045 |
| ATCGCGGGGT | 0.979 ± 0.025 |
| ATCGCTGGGT | 1.01 ± 0.019 |
| ATCGGAGCGG | 1.02 ± 0.031 |
| ATCGGAGGGA | 0.986 ± 0.028 |
| ATCGGATTAT | 0.969 ± 0.047 |
| ATCGGATTGG | 1.03 ± 0.072 |
| ATCGGCCATG | 0.988 ± 0.011 |
| ATCGGCTGTG | 0.983 ± 0.022 |
| ATCGGGAGGT | 1.04 ± 0.061 |
| ATCGGGCGTA | 1.01 ± 0.044 |

| Sequence | switch fluorescence ratio |
| --- | --- |
| ATCGGGGTC | 0.983 ± 0.027 |
| ATCGGGGTCA | 1.01 ± 0.027 |
| ATCGGGGTTG | 0.958 ± 0.017 |
| ATCGGGTTTG | 0.977 ± 0.03 |
| ATCGGTAACT | 1.01 ± 0.032 |
| ATCGGTAGGT | 0.99 ± 0.019 |
| ATCGGTCAGC | 0.982 ± 0.022 |
| ATCGGTGAAG | 0.9925 ± 0.0058 |
| ATCGGTTCGG | 0.9934 ± 0.0053 |
| ATCGTAATGG | 1.04 ± 0.038 |
| ATCGTACGGC | 1.01 ± 0.026 |
| ATCGTATTCA | 1.01 ± 0.027 |
| ATCGTGATCC | 1.016 ± 0.0094 |
| ATCGTGGGGA | 1.012 ± 0.0075 |
| ATCGTGTGGT | 0.9829 ± 0.0092 |
| ATCGTTAAGC | 1.03 ± 0.022 |
| ATCGTTCAAT | 0.9983 ± 0.0046 |
| ATCGTTTACG | 0.994 ± 0.036 |
| ATCGTTTGCA | 1.02 ± 0.022 |
| ATCTAATAGG | 0.959 ± 0.018 |
| ATCTAGATTG | 0.982 ± 0.042 |
| ATCTATATAG | 0.9945 ± 0.0068 |
| ATCTATGTTT | 0.9872 ± 0.0041 |
| ATCTCAATTT | 0.967 ± 0.027 |
| ATCTCTGGTT | 0.966 ± 0.031 |

| Sequence | switch fluorescence ratio |
| --- | --- |
| ATCTGAATGG | 1.12 ± 0.17 |
| ATCTGCTCTT | 1.01 ± 0.04 |
| ATCTGCTTGA | 0.974 ± 0.042 |
| ATCTGGGGTT | 1.04 ± 0.015 |
| ATCTGGGTAG | 1.01 ± 0.03 |
| ATCTGTATGT | 0.968 ± 0.017 |
| ATCTGTGAAC | 1.05 ± 0.073 |
| ATCTGTGGGG | 0.9962 ± 0.0026 |
| ATCTTAGTAA | 0.9998 ± 0.0099 |
| ATCTTAGTTA | 0.999 ± 0.026 |
| ATCTTATTTG | 1.01 ± 0.033 |
| ATCTTGCGGA | 1.02 ± 0.05 |
| ATCTTGGCTG | 0.983 ± 0.03 |
| ATCTTTCGAA | 1.03 ± 0.026 |
| ATGAAAAAAA | 0.976 ± 0.12 |
| ATGAAAACGG | 1 ± 0.051 |
| ATGAAAAGTT | 0.993 ± 0.011 |
| ATGAAAATTA | 0.975 ± 0.025 |
| ATGAAAGCGT | 1.032 ± 0.01 |
| ATGAAATAAA | 0.9835 ± 0.0022 |
| ATGAAATGTT | 1.011 ± 0.0053 |
| ATGAACTCAG | 1.03 ± 0.037 |
| ATGAAGAGAT | 0.9886 ± 0.0064 |
| ATGAAGGAGC | 0.9917 ± 0.0046 |
| ATGAAGGGTT | 1 ± 0.029 |

| Sequence | switch fluorescence ratio |
| --- | --- |
| ATGAATACAA | 1.01 ± 0.014 |
| ATGAATGAAC | 1.03 ± 0.063 |
| ATGAATTCTC | 1.01 ± 0.078 |
| ATGAATTGTT | 0.974 ± 0.02 |
| ATGAATTTTA | 1 ± 0.031 |
| ATGACCGATT | 1.02 ± 0.049 |
| ATGACCTCTT | 0.985 ± 0.034 |
| ATGACCTGGG | 0.9769 ± 0.0049 |
| ATGACTAAGA | 1.006 ± 0.0034 |
| ATGACTGATA | 1.028 ± 0.0038 |
| ATGACTTATT | 0.968 ± 0.027 |
| ATGAGAAAAG | 0.991 ± 0.0095 |
| ATGAGACAGA | 0.999 ± 0.049 |
| ATGAGATTTT | 0.988 ± 0.015 |
| ATGAGCTGAG | 1.01 ± 0.035 |
| ATGAGGGACT | 0.9594 ± 0.0036 |
| ATGAGGGG | 1.01 ± 0.043 |
| ATGAGGGGGA | 0.997 ± 0.026 |
| ATGAGGGGGT | 1.03 ± 0.024 |
| ATGAGGGGTA | 1.01 ± 0.026 |
| ATGAGGGTTG | 1.04 ± 0.013 |
| ATGAGGGTTT | 1.01 ± 0.017 |
| ATGAGTCATC | 0.981 ± 0.034 |
| ATGAGTGTGT | 0.984 ± 0.015 |
| ATGATAAATT | 0.963 ± 0.04 |

| Sequence | switch fluorescence ratio |
| --- | --- |
| ATGATAGTGA | 0.991 ± 0.012 |
| ATGATATTGA | 0.99 ± 0.011 |
| ATGATATTTC | 0.961 ± 0.021 |
| ATGATCTGAG | 1.028 ± 0.005 |
| ATGATCTGCT | 0.946 ± 0.03 |
| ATGATGAGGT | 1 ± 0.017 |
| ATGATGATGG | 0.9858 ± 0.0096 |
| ATGATGGATT | 1.008 ± 0.0031 |
| ATGATGGG | 1.01 ± 0.017 |
| ATGATGGGCT | 0.9654 ± 0.0059 |
| ATGATGGTTT | 1.02 ± 0.032 |
| ATGATGTTTG | 0.981 ± 0.039 |
| ATGATTAACT | 0.986 ± 0.036 |
| ATGATTACGC | 1.06 ± 0.015 |
| ATGATTAGCT | 1.0032 ± 0.00021 |
| ATGATTGGCC | 0.9882 ± 0.0086 |
| ATGATTTTGT | 1.013 ± 0.01 |
| ATGCAAAGGA | 1 ± 0.043 |
| ATGCAATGCT | 3.19 ± 0.18 |
| ATGCAATGGC | 1.437 ± 0.012 |
| ATGCAGAAAT | 1.41 ± 0.83 |
| ATGCAGCATG | 1.021 ± 0.0038 |
| ATGCAGGCGG | 0.9811 ± 0.001 |
| ATGCAGGTGT | 1.23 ± 0.014 |
| ATGCATTACT | 1.61 ± 0.11 |

| Sequence | switch fluorescence ratio |
| --- | --- |
| ATGCATTTTG | 0.97 ± 0.03 |
| ATGCCCGTG | 0.985 ± 0.014 |
| ATGCCCTTCG | 1.04 ± 0.013 |
| ATGCCGAAGG | 0.985 ± 0.054 |
| ATGCCGGGGT | 1.05 ± 0.013 |
| ATGCCGGGTG | 1.07 ± 0.047 |
| ATGCCGGTAT | 0.999 ± 0.053 |
| ATGCCGTGGC | 1.02 ± 0.033 |
| ATGCCTAGTG | 0.994 ± 0.013 |
| ATGCCTGGGT | 0.999 ± 0.034 |
| ATGCGAATCG | 0.99 ± 0.038 |
| ATGCGCAGGG | 1.04 ± 0.051 |
| ATGCGGGCCA | 1.012 ± 0.0061 |
| ATGCGGTATG | 1 ± 0.0024 |
| ATGCGTACTT | 1.01 ± 0.02 |
| ATGCGTGGGG | 1.02 ± 0.029 |
| ATGCTAGGGT | 0.9905 ± 0.0055 |
| ATGCTATAGT | 1.021 ± 0.0025 |
| ATGCTCGGGG | 1 ± 0.015 |
| ATGCTGGGTT | 0.993 ± 0.048 |
| ATGCTTATAC | 2.31 ± 0.36 |
| ATGCTTTGGG | 1.036 ± 0.0061 |
| ATGGAAATTG | 0.954 ± 0.019 |
| ATGGAACGGT | 1.003 ± 0.0053 |
| ATGGAAGGGC | 1.01 ± 0.011 |

| Sequence | switch fluorescence ratio |
| --- | --- |
| ATGGAAGTTT | 1.01 ± 0.022 |
| ATGGAATCAG | 1.015 ± 0.01 |
| ATGGACAATA | 1.07 ± 0.026 |
| ATGGACGGTA | 1.105 ± 0.0076 |
| ATGGACGTTT | 0.967 ± 0.048 |
| ATGGACTCAA | 1.051 ± 0.0073 |
| ATGGAGAACT | 0.976 ± 0.024 |
| ATGGAGAGAA | 1.01 ± 0.039 |
| ATGGAGCGTG | 0.994 ± 0.018 |
| ATGGAGGGGA | 1 ± 0.021 |
| ATGGAGTTTG | 0.9901 ± 0.0057 |
| ATGGATGGTG | 0.96 ± 0.029 |
| ATGGATTGGC | 1.08 ± 0.035 |
| ATGGATTGGT | 0.984 ± 0.012 |
| ATGGATTTAG | 1.014 ± 0.008 |
| ATGGCAAAAG | 1.01 ± 0.045 |
| ATGGCAACAT | 1.01 ± 0.041 |
| ATGGCAATGT | 1.08 ± 0.013 |
| ATGGCACTGG | 1.07 ± 0.013 |
| ATGGCAGGCG | 0.995 ± 0.04 |
| ATGGCATCGG | 1.005 ± 0.0035 |
| ATGGCATGCT | 1.02 ± 0.021 |
| ATGGCCCGGC | 1.03 ± 0.017 |
| ATGGCGGATG | 1.01 ± 0.063 |
| ATGGCGGCGG | 1.01 ± 0.014 |

| Sequence | switch fluorescence ratio |
| --- | --- |
| ATGGCGTGGC | 0.986 ± 0.018 |
| ATGGCTTGGA | 0.996 ± 0.029 |
| ATGGGAAATC | 0.9978 ± 0.0044 |
| ATGGGACAGG | 0.999 ± 0.033 |
| ATGGGAGCCA | 1 ± 0.028 |
| ATGGGAGCTT | 1.01 ± 0.025 |
| ATGGGAGGGA | 1.01 ± 0.021 |
| ATGGGCAGGG | 0.9931 ± 0.0056 |
| ATGGGCAGGT | 0.985 ± 0.02 |
| ATGGGCCCCT | 0.987 ± 0.025 |
| ATGGGCGCGC | 0.982 ± 0.036 |
| ATGGGCGGGC | 1.01 ± 0.03 |
| ATGGGCGTTG | 0.9658 ± 0.0037 |
| ATGGGCTTTG | 0.9674 ± 0.0093 |
| ATGGGGACCT | 1.17 ± 0.17 |
| ATGGGGAGAA | 1.01 ± 0.029 |
| ATGGGGAGTT | 0.972 ± 0.022 |
| ATGGGGATCG | 0.99341 ± 0.00035 |
| ATGGGGATGT | 1.03 ± 0.079 |
| ATGGGGGAAT | 1.0184 ± 0.00041 |
| ATGGGGGAGT | 0.9768 ± 0.0031 |
| ATGGGGGCTA | 0.979 ± 0.068 |
| ATGGGGGGCG | 1.02 ± 0.053 |
| ATGGGGGGCT | 0.987 ± 0.028 |
| ATGGGGGTAT | 0.987 ± 0.019 |
